Target: FLS:Trg:EnvZ:AHK4 hybrid transmembrane histidine kinase (FLS2 plant leader, Trg extracellular domain, EnvZ, …)
Assay: cell-based or functional assay

GUS expression from the ARR5 promoter in transgenic Arabidopsis in response to TNT: ~2 fold
B1: SS-TNT, computationally designed TNT receptor (sensor protein): PEX secretory sequence fused to the periplasmic ribose binding protein engineered to bind TNT (designed binder)
chain: MERPFGCFFILLLISYTVVAKDTIALVVSTLNSPFLVSLKDGAQKEADKLGYNLVVLDSQNNPAKELANVQDLTVRGTKILLINPTDSDAVGNAVKMANQANIPVITLSSQATKGEVVSHIASDNVLGGKIAGDYIAKKAGEGAKVIELQGIAGTSSARESGEGFQQAVAAHKFNVLASQPADIDRIKGLNVMQNLLTAHPDVQAVFAQFDEMALGALRALQTAGKSDVMVVGFSGTPDGEKAVNDGKLAATIASLPDQIGAKGVETADKVLKGEKVQAKYPVDLKLVVKQDYKDDDDK
